Measured values as given in paper PMC8298264, “Function of cofactor Akirin2 in the regulation of gene expression in model human neutrophil-like HL60 cells” (Bioscience Reports, 2021).

B1: sp¦Q8TCS8¦PNPT1_HUMAN (protein, UniProt Q8TCS8 46-783, looked up)
Polyribonucleotide …: AVAVDLGNRKLEISSGKLARFADGSAVVQSGDTAVMVTAVSKTKPSPSQFMPLVVDYRQKAAAAGRIPTNYLRREIGTSDKEILTSRIIDRSIRPLFPAGYFYDTQVLCNLLAVDGVNEPDVLAINGASVALSLSDIPWNGPVGAVRIGIIDGEYVVNPTRKEMSSSTLNLVVAGAPKSQIVMLEASAENILQQDFCHAIKVGVKYTQQIIQGIQQLVKETGVTKRTPQKLFTPSPEIVKYTHKLAMERLYAVFTDYEHDKVSRDEAVNKIRLDTEEQLKEKFPEADPYEIIESFNVVAKEVFRSIVLNEYKRCDGRDLTSLRNVSCEVDMFKTLHGSALFQRGQTQVLCTVTFDSLESGIKSDQVITAINGIKDKNFMLHYEFPPYATNEIGKVTGLNRRELGHGALAEKALYPVIPRDFPFTIRVTSEVLESNGSSSMASACGGSLALMDSGVPISSAVAGVAIGLVTKTDPEKGEIEDYRLLTDILGIEDYNGDMDFKIAGTNKGITALQADIKLPGIPIKIVMEAIQQASVAKKEILQIMNKTISKPRASRKENGPVVETVQVPLSKRAKFVGPGGYNLKKLQAETGVTISQVDEETFSVFAPTPSAMHEARDFITEICKDDQEQQLEFGAVYTATITEIRDTGVMVKLYPNMTAVLLHNTQLDQRKIKHPTALGLEVGQEIQVKYFGRDPADGRMRLSRKVLQSPATTVVRTLNDRSSIVMGEPISQSSSNSQ
B2: sp¦Q9HDC9¦APMAP_HUMAN (protein, UniProt Q9HDC9 2-416, looked up)
Adipocyte plasma …: SEADGLRQRRPLRPQVVTDDDGQAPEAKDGSSFSGRVFRVTFLMLAVSLTVPLLGAMMLLESPIDPQPLSFKEPPLLLGVLHPNTKLRQAERLFENQLVGPESIAHIGDVMFTGTADGRVVKLENGEIETIARFGSGPCKTRDDEPVCGRPLGIRAGPNGTLFVADAYKGLFEVNPWKREVKLLLSSETPIEGKNMSFVNDLTVTQDGRKIYFTDSSSKWQRRDYLLLVMEGTDDGRLLEYDTVTREVKVLLDQLRFPNGVQLSPAEDFVLVAETTMARIRRVYVSGLMKGGADLFVENMPGFPDNIRPSSSGGYWVGMSTIRPNPGFSMLDFLSERPWIKRMIFKLFSQETVMKFVPRYSLVLELSDSGAFRRSLHDPDGLVATYISEVHEHDGHLYLGSFRSPFLCRLSLQAV
B3: sp¦P40926¦MDHM_HUMAN (protein, UniProt P40926 25-338, looked up)
Malate dehydrogenase, …: AKVAVLGASGGIGQPLSLLLKNSPLVSRLTLYDIAHTPGVAADLSHIETKAAVKGYLGPEQLPDCLKGCDVVVIPAGVPRKPGMTRDDLFNTNATIVATLTAACAQHCPEAMICVIANPVNSTIPITAEVFKKHGVYNPNKIFGVTTLDIVRANTFVAELKGLDPARVNVPVIGGHAGKTIIPLISQCTPKVDFPQDQLTALTGRIQEAGTEVVKAKAGAGSATLSMAYAGARFVFSLVDAMNGKEGVVECSFVKSQETECTYFSTPLLLGKKGIEKNLGIGKVSSFEEKMISDAIPELKASIKKGEDFVKTLK
B4: sp¦Q15654¦TRIP6_HUMAN (protein, UniProt Q15654 1-476, looked up)
Thyroid receptor-interacting …: MSGPTWLPPKQPEPARAPQGRAIPRGTPGPPPAHGAALQPHPRVNFCPLPSEQCYQAPGGPEDRGPAWVGSHGVLQHTQGLPADRGGLRPGSLDAEIDLLSSTLAELNGGRGHASRRPDRQAYEPPPPPAYRTGSLKPNPASPLPASPYGGPTPASYTTASTPAGPAFPVQVKVAQPVRGCGPPRRGASQASGPLPGPHFPLPGRGEVWGPGYRSQREPGPGAKEEAAGVSGPAGRGRGGEHGPQVPLSQPPEDELDRLTKKLVHDMNHPPSGEYFGQCGGCGEDVVGDGAGVVALDRVFHVGCFVCSTCRAQLRGQHFYAVERRAYCEGCYVATLEKCATCSQPILDRILRAMGKAYHPGCFTCVVCHRGLDGIPFTVDATSQIHCIEDFHRKFAPRCSVCGGAIMPEPGQEETVRIVALDRSFHIGCYKCEECGLLLSSEGECQGCYPLDGHILCKACSAWRIQELSATVTTDC
B5: sp¦P62995¦TRA2B_HUMAN (protein, UniProt P62995 2-288, looked up)
Transformer-2 protein homolog …: SDSGEQNYGERESRSASRSGSAHGSGKSARHTPARSRSKEDSRRSRSKSRSRSESRSRSRRSSRRHYTRSRSRSRSHRRSRSRSYSRDYRRRHSHSHSPMSTRRRHVGNRANPDPNCCLGVFGLSLYTTERDLREVFSKYGPIADVSIVYDQQSRRSRGFAFVYFENVDDAKEAKERANGMELDGRRIRVDFSITKRPHTPTPGIYMGRPTYGSSRRRDYYDRGYDRGYDDRDYYSRSYRGGGGGGGGWRAAQDRDQIYRRRSPSPYYSRGGYRSRSRSRSYSPRRY
B6: sp¦Q9Y5Y2¦NUBP2_HUMAN (protein, UniProt Q9Y5Y2 1-271, looked up)
Cytosolic Fe-S cluster …: MEAAAEPGNLAGVRHIILVLSGKGGVGKSTISTELALALRHAGKKVGILDVDLCGPSIPRMLGAQGRAVHQCDRGWAPVFLDREQSISLMSVGFLLEKPDEAVVWRGPKKNALIKQFVSDVAWGELDYLVVDTPPGTSDEHMATIEALRPYQPLGALVVTTPQAVSVGDVRRELTFCRKTGLRVMGIVENMSGFTCPHCTECTSVFSRGGGEELAQLAGVPFLGSVPLDPALMRTLEEGHDFIQEFPGSPAFAALTSIAQKILDATPACLP
B7: sp¦P43034¦LIS1_HUMAN (protein, UniProt P43034 1-410, looked up)
Platelet-activating factor …: MVLSQRQRDELNRAIADYLRSNGYEEAYSVFKKEAELDVNEELDKKYAGLLEKKWTSVIRLQKKVMELESKLNEAKEEFTSGGPLGQKRDPKEWIPRPPEKYALSGHRSPVTRVIFHPVFSVMVSASEDATIKVWDYETGDFERTLKGHTDSVQDISFDHSGKLLASCSADMTIKLWDFQGFECIRTMHGHDHNVSSVAIMPNGDHIVSASRDKTIKMWEVQTGYCVKTFTGHREWVRMVRPNQDGTLIASCSNDQTVRVWVVATKECKAELREHEHVVECISWAPESSYSSISEATGSETKKSGKPGPFLLSGSRDKTIKMWDVSTGMCLMTLVGHDNWVRGVLFHSGGKFILSCADDKTLRVWDYKNKRCMKTLNAHEHFVTSLDFHKTAPYVVTGSVDQTVKVWECR
B8: sp¦P41250¦GARS_HUMAN (protein, UniProt P41250 37-739, looked up)
Glycine--tRNA ligase: SAASCPPISLPAAASRSSMDGAGAEEVLAPLRLAVRQQGDLVRKLKEDKAPQVDVDKAVAELKARKRVLEAKELALQPKDDIVDRAKMEDTLKRRFFYDQAFAIYGGVSGLYDFGPVGCALKNNIIQTWRQHFIQEEQILEIDCTMLTPEPVLKTSGHVDKFADFMVKDVKNGECFRADHLLKAHLQKLMSDKKCSVEKKSEMESVLAQLDNYGQQELADLFVNYNVKSPITGNDLSPPVSFNLMFKTFIGPGGNMPGYLRPETAQGIFLNFKRLLEFNQGKLPFAAAQIGNSFRNEISPRSGLIRVREFTMAEIEHFVDPSEKDHPKFQNVADLHLYLYSAKAQVSGQSARKMRLGDAVEQGVINNTVLGYFIGRIYLYLTKVGISPDKLRFRQHMENEMAHYACDCWDAESKTSYGWIEIVGCADRSCYDLSCHARATKVPLVAEKPLKEPKTVNVVQFEPSKGAIGKAYKKDAKLVMEYLAICDECYITEMEMLLNEKGEFTIETEGKTFQLTKDMINVKRFQKTLYVEEVVPNVIEPSFGLGRIMYTVFEHTFHVREGDEQRTFFSFPAVVAPFKCSVLPLSQNQEFMPFVKELSEALTRHGVSHKVDDSSGSIGRRYARTDEIGVAFGVTIDFDTVNKTPHTATLRDRDSMRQIRAEISELPSIVQDLANGNITWADVEARYPLFEGQETGKKETIEE

Tested on: human HL60 cells
Experiment: SWATH-MS proteomics, differential protein representation, akirin2 KO vs WT HL60 cells
Type: cell-based
Conditions: SWATH-MS, akirin2 KO vs WT HL60 cells, under-represented in KO
Summary of the method: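 Three biological replicates per genotype; 150 µg protein FASP/trypsin digested; IDA library (3 µg digest); SWATH variable windows, 5 µg/sample, 3.6 s cycle; gradient 5–30% B 120 min then 30–60% B 15 min; 1% global FDR; TAS normalization.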

**Q.** How did the “Fold Change” value turn out when B1 was run?
**A.** 0.6886

**Q.** What about the “Log (Fold Change)” value of the same molecule?
**A.** -0.162

**Q.** How did the “Fold Change” value turn out when B2 was run?
**A.** 0.6899

**Q.** What about the “Log (Fold Change)” value of the same molecule?
**A.** -0.1612

Same assay, conditions: akirin2 KO vs WT HL60 cells; sheet "Under-represented in KO"

**Q.** For B3, which “Fold Change” value is on record?
**A.** 0.6852

**Q.** And the “Log (Fold Change)” value?
**A.** -0.1642

**Q.** Which “Fold Change” value does the source give for B4 here?
**A.** 0.6873

**Q.** What about the “Log (Fold Change)” value of the same molecule?
**A.** -0.1629

**Q.** How did the “Fold Change” value turn out when B5 was run?
**A.** 0.3066

**Q.** And the “Log (Fold Change)” value?
**A.** -0.5134

**Q.** Which results are given for B6?
**A.** Fold Change: 0.6881; Log (Fold Change): -0.1623

**Q.** Which “Fold Change” value does the source give for B7 here?
**A.** 0.6845

**Q.** And the “Log (Fold Change)” value?
**A.** -0.1646

**Q.** B8 was tested. Which “Fold Change” value did it give?
**A.** 0.6839

**Q.** And the “Log (Fold Change)” value?
**A.** -0.165
